# Measurements as given in IntAct's records for PubMed 22653727.
# B1: Circadian locomoter output cycles protein kaput (Mus musculus), O08785 (parent)
# chain: MVFTVSCSKMSSIVDRDDSSIFDGLVEEDDKDKAKRVSRNKSEKKRRDQFNVLIKELGSMLPGNARKMDKSTVLQKSIDFLRKHKETTAQSDASEIRQDWKPTFLSNEEFTQLMLEALDGFFLAIMTDGSIIYVSESVTSLLEHLPSDLVDQSIFNFIPEGEHSEVYKILSTHLLESDSLTPEYLKSKNQLEFCCHMLRGTIDPKEPSTYEYVRFIGNFKSLTSVSTSTHNGFEGTIQRTHRPSYEDRVCFVATVRLATPQFIKEMCTVEEPNEEFTSRHSLEWKFLFLDHRAPPIIGYLPFEVLGTSGYDYYHVDDLENLAKCHEHLMQYGKGKSCYYRFLTKGQQWIWLQTHYYITYHQWNSRPEFIVCTHTVVSYAEVRAERRRELGIEESLPETAADKSQDSGSDNRINTVSLKEALERFDHSPTPSASSRSSRKSSHTAVSDPSSTPTKIPTDTSTPPRQHLPAHEKMTQRRSSFSSQSINSQSVGPSLTQPAMSQAANLPIPQGMSQFQFSAQLGAMQHLKDQLEQRTRMIEANIHRQQEELRKIQEQLQMVHGQGLQMFLQQSNPGLNFGSVQLSSGNSNIQQLTPVNMQGQVVPANQVQSGHISTGQHMIQQQTLQSTSTQQSQQSVMSGHSQQTSLPSQTPSTLTAPLYNTMVISQPAAGSMVQIPSSMPQNSTQSATVTTFTQDRQIRFSQGQQLVTKLVTAPVACGAVMVPSTMLMGQVVTAYPTFATQQQQAQTLSVTQQQQQQQQQPPQQQQQQQQSSQEQQLPSVQQPAQAQLGQPPQQFLQTSRLLHGNPSTQLILSAAFPLQQSTFPPSHHQQHQPQQQQQLPRHRTDSLTDPSKVQPQ
# Experiments:
# Details in all cases: with Bmal1, Q9WTL8-4
# Bmal1, Q9WTL8-4 [1] = variants of: B1
# Bmal1, Q9WTL8-4 [2] = variants of: B1; remark: listed apart in the source
# Bmal1, Q9WTL8-4 [3] = variants of: B1; remark: listed apart in the source
# Sequence of Bmal1, Q9WTL8-4 (Q9WTL8 other isoform, or with tags, fused parts or gaps): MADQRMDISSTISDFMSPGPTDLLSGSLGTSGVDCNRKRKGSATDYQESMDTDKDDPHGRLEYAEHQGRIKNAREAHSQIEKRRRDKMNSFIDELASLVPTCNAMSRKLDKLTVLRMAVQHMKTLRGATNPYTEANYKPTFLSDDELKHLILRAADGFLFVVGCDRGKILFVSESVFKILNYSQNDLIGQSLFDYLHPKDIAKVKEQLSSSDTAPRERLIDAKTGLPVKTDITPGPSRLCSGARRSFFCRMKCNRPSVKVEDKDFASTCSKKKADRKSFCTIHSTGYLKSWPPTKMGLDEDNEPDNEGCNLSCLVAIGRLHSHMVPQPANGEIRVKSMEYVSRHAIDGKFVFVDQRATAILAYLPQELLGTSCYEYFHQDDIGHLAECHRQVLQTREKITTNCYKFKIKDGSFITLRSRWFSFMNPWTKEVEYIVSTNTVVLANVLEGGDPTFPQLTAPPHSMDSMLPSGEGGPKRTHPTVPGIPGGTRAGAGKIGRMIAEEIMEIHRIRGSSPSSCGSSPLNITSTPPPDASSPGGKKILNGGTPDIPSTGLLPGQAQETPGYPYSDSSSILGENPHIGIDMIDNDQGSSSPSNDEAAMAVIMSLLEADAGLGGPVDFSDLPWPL
"effect of a mutation on the interaction (Bmal1, Q9WTL8-4 [1])","effect of a mutation on the interaction (Bmal1, Q9WTL8-4 [2])","effect of a mutation on the interaction (Bmal1, Q9WTL8-4 [3])",Variant
disrupting interaction strength,decreasing interaction strength,,W284A
with no effect,,,L113E
with no effect,,decreasing interaction strength,L57E
disrupting interaction strength,,disrupting interaction strength,L57E;L113E;W284A
with no effect,,decreasing interaction strength,V315R
with no effect,,,F122D
disrupting interaction strength,,decreasing interaction strength,L74E
